{"source": "paper PMC8810155", "about": "“The eptinezumab:CGRP complex structure – the role of conformational changes in binding stabilization” (Bioengineered, 2021)", "binders": {"B1": {"name": "eptinezumab antigen-binding fragment (Fab) (Fab, V domains shown)", "VH": "EVQLVESGGGLVQPGGSLRLSCAVSGIDLSGYYMNWVRQAPGKGLEWVGVIGINGATYYASWAKGRFTISRDNSKTTVYLQMNSLRAEDTAVYFCARGDIWGQGTLVTVSS", "VL": "QVLTQSPSSLSASVGDRVTINCQASQSVYHNTYLAWYQQKPGKVPKQLIYDASTLASGVPSRFSGSGSGTDFTLTISSLQPEDVATYYCLGSYDCTNGDCFVFGGGTKVEIK", "notes": "heavy-chain part of the papain Fab of eptinezumab (humanized IgG1); light chain of eptinezumab; CDR L3 holds a disulfide bond (Cys95, Cys100 are named); also called eptinezumab Fab; source: partial endoproteolysis of eptinezumab with immobilized papain; purified by Fc depletion followed by SEC"}}, "target": "T1, α-CGRP (human) 37-mer peptide (calcitonin gene-related peptide) (Homo sapiens, UniProt P06881, C-terminal amide (amidated Phe119))", "T1 construct": "human alpha-CGRP, mature 37-residue hormone; mature residues 26-37 correspond to 108-119 of the pro-hormone, so mature 1-37 would be 83-119; Only residues 26-37 (mature numbering; 108-119 of the pro-hormone) are visible in the complex structure; source: bought: Bachem", "T1 chain": "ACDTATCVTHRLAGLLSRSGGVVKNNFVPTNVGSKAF", "experiment": "crystal structure; CGRP mixed with the Fab, complex purified by SEC; crystals at 20°C in sitting drops, 26% PEG MME 550, 9.5 mM ZnSO4, 95 mM MES pH 6.5, 30 mM glycyl-glycyl-glycine; X-ray diffraction to 3.10 Å; 2 Fab and 2 CGRP per asymmetric unit", "conditions": "both partners purified"}
{"binder": "B1", "values": [{"measurement": "binding result", "value": "binds"}]}
